Laboratory results: patent US6608174B1, “Radiolabeled vasoactive intestinal peptide analogs for diagnosis and radiotherapy” (Dabur Research Foundation, priority 2000, dated 2003)
Square brackets hold non-standard residues; d marks the D form. Peptide text beside a SMILES is read from it. * marks the point of attachment. DTPA = O=C(O)CN(CCN(CC(=O)O)CC(=O)O)CCN(CC(=O)O)CC(=O)*; dPhe(4-Cl) = N[C@H](Cc1ccc(Cl)cc1)C(=O)O; Aib = CC(C)(N)C(=O)O; Ahx = NCCCCCC(=O)O

System: human adenocarcinoma tumor
Set-up: species or system NIH nu/nu nude mice
Conditions: mouse, in vivo, iv
From the text: Tc-99m labeled peptide (SEQ ID NO: 10) was used to image tumors induced subcutaneously in the abdomen of NIH nu/nu nude mice. Following intravenous administration in human adenocarcinoma tumor bearing nude mice, images were taken at different time intervals post […], using a conventional gamma camera. […] The results are shown in FIG. 1 which clearly depicts that the accumulation of Tc-99m labeled VIP analog is high in tumor (indicated with arrow) as compared to the accumulation in viscera (unmarked dots) after 3 hours of injection.

CC[C@H](C)[C@H](NC(=O)[C@H](CO)NC(=O)[C@H](CC(N)=O)NC(=O)[C@H](CC(C)C)NC(=O)[C@H](Cc1ccc(O)cc1)NC(=O)[C@H](CCCCN)NC(=O)[C@H](CCCCN)NC(=O)[C@@H](NC(=O)[C@H](C)NC(=O)[C@H](CC(C)C)NC(=O)[C@H](CCC(N)=O)NC(=O)[C@H](CCCCN)NC(=O)[C@H](CCCNC(=N)N)NC(=O)[C@H](CC(C)C)NC(=O)[C@H](CCCNC(=N)N)NC(=O)[C@@H](NC(=O)[C@H](Cc1ccc(O)cc1)NC(=O)[C@H](CC(N)=O)NC(=O)[C@H](CC(=O)O)NC(=O)[C@@H](NC(=O)[C@@H](Cc1ccc(Cl)cc1)NC(=O)[C@@H](NC(=O)C(C)(C)NC(=O)[C@H](CC(=O)O)NC(=O)[C@H](CO)NC(=O)[C@H](Cc1c[nH]cn1)NC(=O)CCCCCNC(=O)CN(CCN(CCN(CC(=O)O)CC(=O)O)CC(=O)O)CC(=O)O)C(C)C)[C@@H](C)O)[C@@H](C)O)C(C)C)C(=O)N[C@@H](CC(C)C)C(=O)N[C@@H](CC(N)=O)C(N)=O [Tc-99m labeled peptide (SEQ ID NO: 10), metal not drawn] ({DTPA-Ahx}-HSD[Aib]V[dPhe(4-Cl)]TDNYTRLRKQLAVKKYLNSILN-NH2)
accumulation in liver and kidney: little accumulation in liver and kidney | blood clearance: rapid blood clearance
